Reference: patent publication US20200140835

Assays:
[1] = system: SpCas9 delta-Helical-III deletion F498-Q712 replaced by GGS linker (Streptococcus pyogenes); assay: cleavage_in_vitro; details: Helical-III in trans rescues ~100-fold; 5 mM MgCl2
[2] = system: Helical-III domain of SpCas9, supplied in trans

## lambda1-targeting sgRNA ; lambda1 on-target DNA
[1]
  activity (fold decrease vs WT): 1000

## SpCas9ΔHelical-III (ΔF498-Q712 with GGS linker)
[2]
  cleavage with a PAM-distal mismatched target: had no effect on cleavage with a PAM-distal mismatched target
  on-target cleavage rate (radiolabeled DNA cleavage assay): rescued the on-target cleavage rate by ˜100-fold in a concentration-dependent manner
